Experimental data reported in paper PMC4815019, “The Terminal Oxidase Cytochrome bd Promotes Sulfide-resistant Bacterial Respiration and Growth” (Scientific Reports, 2016).

Tests used:
[1] = biological target: O-acetylserine sulfhydrylase from Entamoeba histolytica (Entamoeba histolytica); assay: SEC; 120-ml Superdex S-200 column, buffer A (50 mM potassium phosphate, 300 mM KCl, pH 7.5, 10% glycerol), 0.7 mL/min
[2] = biological target: T1, cytochrome bo3 (heme-copper bo3 oxidase) (Escherichia coli, UniProt P0ABI8); assay: O2 consumption, high-resolution respirometry (Oxygraph-2k); Hill fit with n = […]; type: biochemical
T1 construct: gene cyoB; dodecyl maltoside micelles; with Cytochrome bo(3) ubiquinol oxidase subunit 2; Cytochrome bo(3) ubiquinol oxidase subunit 3; Cytochrome bo(3) ubiquinol oxidase subunit 4
T1 sequence (P0ABJ3 whole entry): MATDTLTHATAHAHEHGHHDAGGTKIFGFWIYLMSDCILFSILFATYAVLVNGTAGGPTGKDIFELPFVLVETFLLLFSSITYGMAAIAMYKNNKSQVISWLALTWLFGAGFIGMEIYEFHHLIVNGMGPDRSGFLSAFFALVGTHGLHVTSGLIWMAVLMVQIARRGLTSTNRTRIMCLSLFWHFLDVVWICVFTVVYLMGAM
T1 sequence (P0ABI8 whole entry): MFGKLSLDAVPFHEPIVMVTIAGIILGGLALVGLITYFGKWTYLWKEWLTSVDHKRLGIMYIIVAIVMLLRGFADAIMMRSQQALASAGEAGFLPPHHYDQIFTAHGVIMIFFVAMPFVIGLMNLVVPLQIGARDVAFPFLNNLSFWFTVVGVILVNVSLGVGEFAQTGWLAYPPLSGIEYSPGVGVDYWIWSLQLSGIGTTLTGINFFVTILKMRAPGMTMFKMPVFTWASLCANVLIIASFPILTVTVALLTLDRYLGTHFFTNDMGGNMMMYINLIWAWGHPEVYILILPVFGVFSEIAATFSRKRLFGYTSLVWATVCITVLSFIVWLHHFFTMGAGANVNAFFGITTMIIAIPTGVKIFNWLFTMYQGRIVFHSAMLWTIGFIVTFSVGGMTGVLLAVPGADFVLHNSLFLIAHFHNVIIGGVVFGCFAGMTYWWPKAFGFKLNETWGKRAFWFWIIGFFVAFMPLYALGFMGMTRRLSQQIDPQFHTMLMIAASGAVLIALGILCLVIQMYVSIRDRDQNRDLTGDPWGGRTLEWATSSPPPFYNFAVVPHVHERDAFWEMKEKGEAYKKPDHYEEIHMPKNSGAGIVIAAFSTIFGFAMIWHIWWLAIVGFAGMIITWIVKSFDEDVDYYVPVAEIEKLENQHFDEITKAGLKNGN
T1 sequence (P0ABJ1 25-315, further chain): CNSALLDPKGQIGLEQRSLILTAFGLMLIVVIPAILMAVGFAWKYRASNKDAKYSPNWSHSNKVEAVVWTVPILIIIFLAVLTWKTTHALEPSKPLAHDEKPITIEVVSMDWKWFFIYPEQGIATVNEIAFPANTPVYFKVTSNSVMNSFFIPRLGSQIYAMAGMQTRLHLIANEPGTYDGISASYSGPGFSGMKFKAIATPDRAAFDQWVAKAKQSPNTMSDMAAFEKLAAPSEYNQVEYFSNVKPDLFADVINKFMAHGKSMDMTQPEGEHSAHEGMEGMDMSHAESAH
T1 sequence (P0ABJ6 whole entry, further chain): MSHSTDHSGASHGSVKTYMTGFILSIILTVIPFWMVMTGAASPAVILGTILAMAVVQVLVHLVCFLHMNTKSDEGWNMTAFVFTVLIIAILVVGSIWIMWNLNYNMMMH

| stoichiometry N [1] | Molecule | IC50 [2] |
| --- | --- | --- |
| 2 | O-acetylserine sulfhydrylase from Entamoeba histolytica (enzyme) |  |
|  | S [NaHS] | 1100 ± 100 nM |
